Tests used:
human Hsp103 = biological target: T1, human Hsp103 (human, UniProt P07900-2 1-854); experiment: SEC; chaperone and cochaperone at 2.5 µM, 10 min at 30°C following 10 min on ice, 40 mM Hepes-KOH pH 7.4, 50 mM KCl, 2 mM Mg2Cl; Superdex 200 HR 10/30 in the same buffer; fractions analysed by SDS-PAGE (Western blot for Aha1 and Cdc37 in the Hsp103 runs); shift of the cochaperone to higher molecular mass; settings: both partners purified
T1 construct: human Hsp103, the isoform of Hsp90α with an additional 122 aa (E domain) at the N-terminus; printed length 854 aa (also printed as 852 aa for Hsp90AA1-2); also called Hsp90AA1-2; Hsp90α with extra E domain

human Hsp90α = biological target: T2, human Hsp90α (human, UniProt P07900-1 1-732); experiment: as above; settings: both partners purified
T2 construct: human Hsp90α (Hsp90AA1-1), canonical isoform, 732 aa as printed; also called Hsp90AA1-1; heat shock protein 90

B1: human Cdc37 (natural protein, UniProt Q16543 1-378, looked up)
chain: MVDYSVWDHIEVSDDEDETHPNIDTASLFRWRHQARVERMEQFQKEKEELDRGCRECKRKVAECQRKLKELEVAEGGKAELERLQAEAQQLRKEERSWEQKLEEMRKKEKSMPWNVDTLSKDGFSKSMVNTKPEKTEEDSEEVREQKHKTFVEKYEKQIKHFGMLRRWDDSQKYLSDNVHLVCEETANYLVIWCIDLEVEEKCALMEQVAHQTIVMQFILELAKSLKVDPRACFRQFFTKIKTADRQYMEGFNDELEAFKERVRGRAKLRIEKAMKEYEEEERKKRLGPGGLDPVEVYESLPEELQKCFDVKDVQMLQDAISKMDPTDAKYHMQRCIDSGLWVPNSKASEAKEGEEAGPGDPLLEAVPKTGDEKDVSV
notes: human Cdc37, cochaperone of Hsp90
binding result (human Hsp103): binds
binding result (human Hsp90α): binds

From publication PMC3739785, “A Primate Specific Extra Domain in the Molecular Chaperone Hsp90” (PLoS ONE, 2013)
